US20250197889

Columns and labels:
[1] = biological target: AcrIIC2Nme
[2] = biological target: AcrIIC1Nme
[3] = biological target: AcrIIC3Nme
[4] = biological target: AcrIIC5Smu
[5] = biological target: AcrE2
[6] = biological target: AcrIIC4Hpa

B1: Nme1Cas9 (Neisseria meningitidis strain 8013 Cas9), recombinant purified protein (protein)
chain: MAAFKPNSINYILGLDIGIASVGWAMVEIDEEENPIRLIDLGVRVFERAEVPKTGDSLAMARRLARSVRRLTRRRAHRLLRTRRLLKREGVLQAANFDENGLIKSLPNTPWQLRAAALDRKLTPLEWSAVLLHLIKHRGYLSQRKNEGETADKELGALLKGVAGNAHALQTGDFRTPAELALNKFEKESGHIRNQRSDYSHTFSRKDLQAELILLFEKQKEFGNPHVSGGLKEGIETLLMTQRPALSGDAVQKMLGHCTFEPAEPKAAKNTYTAERFIWLTKLNNLRILEQGSERPLTDTERATLMDEPYRKSKLTYAQARKLLGLEDTAFFKGLRYGKDNAEASTLMEMKAYHAISRALEKEGLKDKKSPLNLSPELQDEIGTAFSLFKTDEDITGRLKDRIQPEILEALLKHISFDKFVQISLKALRRIVPLMEQGKRYDEACAEIYGDHYGKKNTEEKIYLPPIPADEIRNPVVLRALSQARKVINGVVRRYGSPARIHIETAREVGKSFKDRKEIEKRQEENRKDREKAAAKFREYFPNFVGEPKSKDILKLRLYEQQHGKCLYSGKEINLGRLNEKGYVEIDHALPFSRTWDDSFNNKVLVLGSENQNKGNQTPYEYFNGKDNSREWQEFKARVETSRFPRSKKQRILLQKFDEDGFKERNLNDTRYVNRFLCQFVADRMRLTGKGKKRVFASNGQITNLLRGFWGLRKVRAENDRHHALDAVVVACSTVAMQQKITRFVRYKEMNAFDGKTIDKETGEVLHQKTHFPQPWEFFAQEVMIRVFGKPDGKPEFEEADTLEKLRTLLAEKLSSRPEAVHEYVTPLFVSRAPNRKMSGQGHMETVKSAKRLDEGVSVLRVPLTQLKLKDLEKMVNREREPKLYEALKARLEAHKDDPAKAFAEPFYKYDKAGNRTQQVKAVRVEQVQKTGVWVRNHNGIADNATMVRVDVFEKGDKYYLVPIYSWQVAKGILPDRAVVQGKDEEDWQLIDDSFNFKFSLHPNDLVEVITKKARMFGYFASCHRGTGNINIRIHDLDHKIGKNGILEGIGVKTALSFQKYQIDELGKEIRPCRLKKRPPVR
in vitro cleavage of a target DNA by Cas9-sgRNA (10:1 Acr:Cas9 molar ratio) [1]: all Arc families inhibited Nme1Cas9
in vitro cleavage of a target DNA by Cas9-sgRNA (10:1 Acr:Cas9 molar ratio) [2]: all Arc families inhibited Nme1Cas9
in vitro cleavage of a target DNA by Cas9-sgRNA (10:1 Acr:Cas9 molar ratio) [3]: all Arc families inhibited Nme1Cas9
in vitro cleavage of a target DNA by Cas9-sgRNA (10:1 Acr:Cas9 molar ratio) [4]: all Arc families inhibited Nme1Cas9
in vitro cleavage of a target DNA by Cas9-sgRNA (10:1 Acr:Cas9 molar ratio) [5]: AcrE2 failed to do so
in vitro cleavage of a target DNA by Cas9-sgRNA (10:1 Acr:Cas9 molar ratio) [6]: all Arc families inhibited Nme1Cas9
